Data on one molecule can be found in article PMC6638966, “The demethylase NMAD-1 regulates DNA replication and repair in the Caenorhabditis elegans germline” (PLoS Genetics, 2019).

The target in this test is T1, GST-tagged TOP-2 (C. elegans, UniProt Q23670 1-1520).
T1 construct: TOP-2, topoisomerase II of C. elegans; also called topoisomerase II; source: E. coli BL21, purified (glutathione sepharose 4B)
In words: pull-down; 3 μg GST-tagged protein on glutathione sepharose 4B beads with 1 μg HIS-tagged NMAD-1 in TAP wash buffer (50 mM Tris-HCl pH 8.0, 100 mM KCl), 1 h at 4 °C; blot probed with HIS antibody. The conditions noted are these: both partners purified.

T1 sequence (Q23670 whole entry): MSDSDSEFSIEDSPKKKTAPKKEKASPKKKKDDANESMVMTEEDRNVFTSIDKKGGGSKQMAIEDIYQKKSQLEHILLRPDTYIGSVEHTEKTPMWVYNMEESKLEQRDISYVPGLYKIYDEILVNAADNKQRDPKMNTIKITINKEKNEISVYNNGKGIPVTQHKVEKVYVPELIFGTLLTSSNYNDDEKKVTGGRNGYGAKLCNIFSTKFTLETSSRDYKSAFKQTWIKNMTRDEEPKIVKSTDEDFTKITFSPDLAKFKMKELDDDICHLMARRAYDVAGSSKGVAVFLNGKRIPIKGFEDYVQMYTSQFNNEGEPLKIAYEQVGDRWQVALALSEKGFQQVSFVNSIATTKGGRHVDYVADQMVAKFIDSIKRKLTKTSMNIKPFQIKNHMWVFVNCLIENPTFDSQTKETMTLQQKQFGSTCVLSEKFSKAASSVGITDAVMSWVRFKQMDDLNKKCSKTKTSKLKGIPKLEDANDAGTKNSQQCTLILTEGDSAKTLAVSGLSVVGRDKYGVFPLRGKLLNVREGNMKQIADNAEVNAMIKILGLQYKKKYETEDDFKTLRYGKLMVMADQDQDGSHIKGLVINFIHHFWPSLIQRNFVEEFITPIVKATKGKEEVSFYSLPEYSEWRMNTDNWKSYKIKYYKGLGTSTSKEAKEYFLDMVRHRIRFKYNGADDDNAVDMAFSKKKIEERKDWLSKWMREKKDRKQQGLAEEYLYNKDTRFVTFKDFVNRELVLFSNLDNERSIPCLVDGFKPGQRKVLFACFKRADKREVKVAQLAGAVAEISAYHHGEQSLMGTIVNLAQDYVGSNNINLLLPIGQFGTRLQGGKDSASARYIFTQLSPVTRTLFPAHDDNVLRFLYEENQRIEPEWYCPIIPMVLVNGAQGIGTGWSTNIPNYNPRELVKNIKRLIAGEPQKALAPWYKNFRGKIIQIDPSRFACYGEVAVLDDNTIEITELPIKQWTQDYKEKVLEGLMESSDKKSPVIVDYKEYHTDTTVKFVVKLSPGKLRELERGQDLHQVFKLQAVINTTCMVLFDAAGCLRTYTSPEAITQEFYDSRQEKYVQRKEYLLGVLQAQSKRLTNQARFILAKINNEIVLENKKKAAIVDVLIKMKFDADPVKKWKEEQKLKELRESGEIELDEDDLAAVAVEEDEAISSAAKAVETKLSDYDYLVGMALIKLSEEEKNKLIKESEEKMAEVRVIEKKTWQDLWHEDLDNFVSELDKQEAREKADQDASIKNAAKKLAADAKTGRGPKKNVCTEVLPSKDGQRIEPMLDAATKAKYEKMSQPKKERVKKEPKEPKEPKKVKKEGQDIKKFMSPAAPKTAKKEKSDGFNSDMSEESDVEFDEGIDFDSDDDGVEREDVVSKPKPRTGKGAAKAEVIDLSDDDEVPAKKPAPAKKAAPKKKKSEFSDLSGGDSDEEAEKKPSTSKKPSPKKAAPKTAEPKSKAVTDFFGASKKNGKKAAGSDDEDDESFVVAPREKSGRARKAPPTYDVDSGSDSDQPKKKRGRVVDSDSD

B1: recombinant His-tagged NMAD-1 (enzyme, C. elegans, UniProt Q8MNT9 1-291, looked up)
chain: MGSAEQACGCKGARFCALCETTERVKKLRVVEDKHVNYKVFIYDHIRQIAIPTTNLNSQSSLEDIIDESTSCQSVSTDGSIEIDGLTLIHNFLSESEESKILNMIDTVEWAQSQSGRRKQDYGPKVNFKHKKVKTDTFVGMPEYADMLLNKMSEYDVKKLGNYQPFEMCNLEYEEVKKSAIEMHQDDMWIWGNRLISINLINGSVMTLSNDNKSFLCYVHMPHRSLLCMADECRYDWKHGVLAHHIRGRRIALTMREAAKDFAEGGELYEKYGAELIRLGNIRVPLSKTSV
notes: NMAD-1 (F09F7.7) of C. elegans; also called HIS:NMAD-1; source: E. coli BL21, purified (Ni-NTA)
On to B1, for which the binding result was “binds”.
